Test results as given in US20030078221, “High affinity nucleic acid ligands of complement system proteins” (Gilead Sciences, Inc., published 2003).

How the values were obtained:
Complement C1q [1] = biological target: T1, Complement C1q (UniProt P02745;P02746;P02747 P02745:23-245,P02746:28-253,P02747:29-245); test: FP; nitrocellulose filter binding, MgPBS 37C; conditions: tags: Quidel; chain copies: 6
Description: (§1) Individual cloned DNA was T7 transcribed with α-[³²P]-ATP and the full length [³²P]-2′-NH₂-RNA or 2′-F-RNA was gel-purified (as above). RNA was suspended at approximately 5,000 cpm per 30 μL sample (<10 pM), and aliquots were incubated with various concentrations of C1q, C3 or C5 in MgPBS for 10 minutes at 37° C. Samples were then filtered through nitrocellulose, the filters washed with buffer and dried under an infrared lamp, and counted with addition of scintillation fluid (Ecoscint A, National Diagnostics, Atlanta, Ga.). A background sample of RNA alone was run in parallel. […] Filters were washed and counted.

Complement C1q [2] = biological target: T1, Complement C1q; test: filter; MgPBS 37C; conditions: tags: Quidel; chain copies: 6
Description: as §1

Complement C5 [3] = biological target: T2, Complement C5 (Homo sapiens, UniProt P01031;P01031 P01031:19-673,P01031:678-1676); test: filter; MgPBS 37C; conditions: tags: Quidel
Description: as §1
(§2) Sequences were grouped according to homology and function.

Complement C5 [4] = biological target: T2, Complement C5; test: filter; minimal binding truncate; conditions: tags: Quidel; stem-loop with UUU bulge
Description: as §1

Complement C5 [5] = biological target: T2, Complement C5; test: filter; reduced binding; conditions: tags: Quidel
Complement C1q [6] = biological target: T1, Complement C1q; test: filter; MgPBS 37C; SEQ 12 in listing differs from Table 2 near the 3' end; conditions: tags: Quidel; chain copies: 6
Description: as §1

Complement C5 [7] = biological target: T2, Complement C5; test: filter; conditions: tags: Quidel
Complement C1q [8] = biological target: T1, Complement C1q; test: filter; above background at 0.1 and 0.5 nM C1q; conditions: tags: Quidel; chain copies: 6
Complement C1q [9] = biological target: T1, Complement C1q; test: filter; above background; SEQ 13 in listing differs from Table 2 near the 3' end; conditions: tags: Quidel; chain copies: 6
Complement C1q [10] = biological target: T1, Complement C1q; test: filter; above background; SEQ 20 in listing differs from Table 2; conditions: tags: Quidel; chain copies: 6
Complement C5 [11] = biological target: T2, Complement C5; test: filter; Group I affinities stated very similar; conditions: tags: Quidel
Description: as §1, §2

Complement C5 [12] = biological target: T2, Complement C5; test: filter; >10-fold over background at 100 and 10 nM C5; 2'-OMe interference; conditions: tags: Quidel
From the text: The partially substituted 2′-OMe oligonucleotides were 5′-[³²P] -kinase-labeled. […] The oligonucleotides were eluted from the protein, alkaline hydrolyzed and then run on a 20% acrylamide/7 M urea/TBE sequencing gel. On adjacent tracks were run oligonucleotides not selected with C5. Band intensities were quantitated with on an Instantlmager (Packard, Meriden, Conn.).

T1 sequence (P02745 23-245, chain 1 of 3): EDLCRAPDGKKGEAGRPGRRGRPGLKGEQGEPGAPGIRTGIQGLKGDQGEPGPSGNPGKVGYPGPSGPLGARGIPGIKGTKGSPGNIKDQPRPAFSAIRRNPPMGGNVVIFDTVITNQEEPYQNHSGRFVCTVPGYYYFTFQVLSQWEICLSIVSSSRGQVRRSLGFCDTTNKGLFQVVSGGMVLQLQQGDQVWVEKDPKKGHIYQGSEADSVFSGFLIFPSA
T1 sequence (P02746 28-253, chain 2 of 3): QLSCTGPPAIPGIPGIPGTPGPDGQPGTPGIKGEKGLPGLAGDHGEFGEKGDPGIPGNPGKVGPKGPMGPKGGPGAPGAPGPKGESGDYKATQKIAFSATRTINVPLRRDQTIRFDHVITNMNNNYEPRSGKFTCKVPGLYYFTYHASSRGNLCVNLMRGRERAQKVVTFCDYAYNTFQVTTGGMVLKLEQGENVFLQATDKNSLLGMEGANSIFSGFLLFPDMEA
T1 sequence (P02747 29-245, chain 3 of 3): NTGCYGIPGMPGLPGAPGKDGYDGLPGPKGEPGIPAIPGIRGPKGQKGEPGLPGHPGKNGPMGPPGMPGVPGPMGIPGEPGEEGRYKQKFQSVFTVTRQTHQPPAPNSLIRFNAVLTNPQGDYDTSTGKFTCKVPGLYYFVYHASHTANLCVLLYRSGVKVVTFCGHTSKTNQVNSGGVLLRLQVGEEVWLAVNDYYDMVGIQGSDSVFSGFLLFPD

B1: C1q clone 36 (ssRNA)
RNA: GGGAGGACGAUGCGGGAGGAGUGGAGGUAAACAAUAGGCCGGUAGCGACUCCCACUAACAGCCUCAGACGACUCGCCCGA
modifications: 2'-NH2 pyrimidines
B1 was tested. Which Kd (Complement C1q [1]) did it give?
The Kd was 0.29 nM.

B2: C1q clone 45 (ssRNA)
RNA: GGGAGGACGAUGCGGUGGAGUGGAGGUAUACCGGCCGGUAGCGCAUCCCACUCGGGUCUGUGCUCAGACGACUCGCCCGA
modifications: 2'-NH2 pyrimidines
How did the Kd (Complement C1q [2]) turn out when B2 was run?
The Kd was 1.38 nM.

B3: A6 (ssRNA)
RNA: GGGAGGACGAUGCGGUCCGGCGCGCUGAGUGCCGGUUUAUCCUCGUCAGACGACUCGCCCGA
modifications: 2'-F pyrimidines
B3 was tested. Which Kd (Complement C5 [3]) did it give?
Its Kd is 35 nM.

B4: E5c/E11 (ssRNA)
RNA: GGGAGGACGAUGCGGUCCGGCGCGCUGAGUGCCGGUUAUCCUCGUCAGACGACUCGCCCGA
modifications: 2'-F pyrimidines
With B4 as the binder, how does the Kd (Complement C5 [3]) read?
The Kd was 60 nM.

With GGGAGGAGGAUCGGUGUUCAGCAUUCAGAUCUUCAGACGACUCGCCCGA (ssRNA, 2'-F pyrimidines) [E4c] as the binder, how does the Kd (Complement C5 [3]) read?
Its Kd is 50 nM.

B5: C9 (ssRNA)
RNA: GGGAGGACGAUGCGGUGAGCGUGUAAAACGGUUUCGAUAGAGCCUCAGACGACUCGCCCGA
modifications: 2'-F pyrimidines
Which Kd (Complement C5 [3]) does the source give for B5 here?
Its Kd is 45 nM.

B6: F8 (ssRNA)
RNA: GGGAGGACGAUGCGGUCUCAUGCGCCGAGUGUGAGUUUACCUUCGUCAGACGACUCGCCCGA
modifications: 2'-F pyrimidines
How did the Kd (Complement C5 [3]) turn out when B6 was run?
The Kd was 30 nM.

For CGAUGCGGUCUCAUGCGUCGAGUGUGAGUUUACCUUCG (ssRNA, 2'-F pyrimidines) [C6 38mer truncate], which Kd (Complement C5 [4]) is on record?
The Kd was 20 nM.

Which Kd (Complement C5 [5]) does the source give for GAUGCGGUCUCAUGCGUCGAGUGUGAGUUUACCUUC (ssRNA, 2'-F pyrimidines) [C6 36mer truncate] here?
The Kd was 50 nM.

B7: C1q clone 50 (ssRNA)
RNA: GGGAGGACGAUGCGGGUGGAGUGGAGGUAUAACGGCCGGUAGCGCAUCCCACUCGGGUCUGUGCUAGACGACUCGCCCGA
modifications: 2'-NH2 pyrimidines
How did the Kd (Complement C1q [6]) turn out when B7 was run?
The Kd was 0.979 nM.

B8: YL-79 (ssRNA)
RNA: GGGAGAUAAGAAUAAACGCUCAAGAACCACGCGGUCUCAGGCGUAGAGUCUGAGUUUACCUUGGUUUUCGACAGGAGGCUCACAACAGGC
modifications: 2'-F pyrimidines
Which Kd (Complement C5 [7]) does the source give for B8 here?
The Kd was 15 nM.

B9: YL-56 (ssRNA)
RNA: GGGAGAUAAGAAUAAACGCUCAAGGUACACGCGGUCUGACGCGCUGAGUGUCAGUUUACCUUGUACUUCGACAGGAGGCUCACAACAGGC
modifications: 2'-F pyrimidines
How did the Kd (Complement C5 [7]) turn out when B9 was run?
The Kd was 12 nM.

B10: YL-13 (ssRNA)
RNA: GGGAGAUAAGAAUAAACGCUCAAGGACGCCGCGGUCUCAGGCGCUGAGUCUGAGUUUACCUGCGUCUUCGACAGGAGGCUCACAACAGGC
modifications: 2'-F pyrimidines
How did the Kd (Complement C5 [7]) turn out when B10 was run?
Its Kd is 6 nM.

B11: YL-14 (ssRNA)
RNA: GGGAGAUAAGAAUAAACGCUCAAGUACGACGCGGUCCCGUGCGUGGAGUGCGGGUUUACCUUCGUAUUCGACAGGAGGCUCACAACAGGC
modifications: 2'-F pyrimidines
How did the Kd (Complement C5 [7]) turn out when B11 was run?
Its Kd is 25 nM.

B12: C1q clone 3 (ssRNA)
RNA: GGGAGGACGAUGCGGGAGGAGUGGAGGUAAACAAUAGGUCGGUAGCGACUCCCACUAACAGGCCUCAGACGACUCGCCCGA
modifications: 2'-NH2 pyrimidines
Does B12 bind (Complement C1q [8])?
Result: binds

B13: C1q clone 12 (ssRNA)
RNA: GGGAGGACGAUGCGGGUGGAGUGGAGGUAAACAAUAGGUCGGUAGCGACUCCCAGUAACGGCCUCAGACGACUCGCCCGA
modifications: 2'-NH2 pyrimidines
Does B13 bind (Complement C1q [8])?
Result: binds

B14: C1q clone 33 (ssRNA)
RNA: GGGAGGACGAUGCGGGUUGCUGGUAGCCUGAUGUGGGUGGAGUGAGUGGAGGGUUGAAAAAUGCAGACGACUCGCCCGA
modifications: 2'-NH2 pyrimidines
With B14 as the binder, how does the Kd (Complement C1q [2]) read?
Its Kd is 3.85 nM.

B15: C1q clone 23c (ssRNA)
RNA: GGGAGGACGAUGCAAGUGGAGUGGAGGUAUAACGGCCGGUAGGCAUCCCACUCGGGCCUAGCUCAGACGACUCGCCCGA
modifications: 2'-NH2 pyrimidines
Does B15 bind (Complement C1q [8])?
Result: binds

B16: C1q clone 30 (ssRNA)
RNA: GGGAGGACGAUGCGGGUGGAGUGGGGAUCAUACGGCUGGUAGCACGAGCUCCCUAACAGCGGUCAGACGACUCGCCCGA
modifications: 2'-NH2 pyrimidines
Does B16 bind (Complement C1q [8])?
Result: binds

B17: C1q clone 47 (ssRNA)
RNA: GGGAGGACGAUGCGGGUGGAGCGGAGGUUUAUACGGCUGGUAGCUCGAGCUCCCUAACACGCGGUAGACGACUCGCCCGA
modifications: 2'-NH2 pyrimidines
Does B17 bind (Complement C1q [8])?
Result: binds

B18: C1q clone 78 (ssRNA)
RNA: GGGAGGACGAUGCGGGUGGAGUGGAGGGUAAACAAUGGCUGGUGGCAUUCGGAAUCUCCCAACGUAGACGACUCGCCCGA
modifications: 2'-NH2 pyrimidines
Does B18 bind (Complement C1q [9])?
Result: binds

B19: C1q clone 40 (ssRNA)
RNA: GGGAGGACGAUGCGGCUGGUAGCAUGUGCAUUGAUGGGAGGAGUGGAGGUCACCGUCAACCGUCAGACGACUCGCCCGA
modifications: 2'-NH2 pyrimidines
Does B19 bind (Complement C1q [8])?
Result: binds

B20: C1q clone 43 (ssRNA)
RNA: GGGAGGACGAUGCGGUUUCUCGGCCAGUAGUUUGCGGGUGGAGUGGAGGUAUAUCUGCGUCCUCGCAGACGACUCGCCCGA
modifications: 2'-NH2 pyrimidines
Does B20 bind (Complement C1q [8])?
Result: binds

B21: C1q clone 22 (ssRNA)
RNA: GGGAGGACGAUGCGGGCAUAGUGGGCAUCCCAGGGUUGCCUAACGGCAUCCGGGGUUGUUAUUGGCAGACGACUCGCCCGA
modifications: 2'-NH2 pyrimidines
Does B21 bind (Complement C1q [8])?
Result: binds

B22: C1q clone 67 (ssRNA)
RNA: GGGAGGACGAUGCGGCAGACGACUCGCCCGAGGGGAUCCCCCGGGCCUGCAGGAAUUCGAUAUCAGACGACUCGCCCGA
modifications: 2'-NH2 pyrimidines
Does B22 bind (Complement C1q [10])?
Result: binds

B23: C1q clone 14 (ssRNA)
RNA: GGGAGGACGAUGCGGCACCUCACCUCCAUAUUGCCGGUUAUCGCGUAGGGUGAGCCCAGACACGACAGACGACUCGCCCGA
modifications: 2'-NH2 pyrimidines
Which Kd (Complement C1q [2]) does the source give for B23 here?
The Kd was 2.4 nM.

B24: K7 (ssRNA)
RNA: GGGAGGACGAUGCGGUCUCAUGCGUCGAGUGUGAGUUUAACUGCGUCAGACGACUCGCCCGA
modifications: 2'-F pyrimidines
Does B24 bind (Complement C5 [11])?
Result: binds

B25: G7 (ssRNA)
RNA: GGGAGGACGAUGCGGUCUGCUACGCUGAGUGGCUGUUUACCUUCGUCAGACGACUCGCCCGA
modifications: 2'-F pyrimidines
Does B25 bind (Complement C5 [11])?
Result: binds

B26: H1 (ssRNA)
RNA: GGGAGGACGAUGCGGUCGGAUGCGCCGAGUCUCCGUUUACCUUCGUCAGACGACUCGCCCGA
modifications: 2'-F pyrimidines
Does B26 bind (Complement C5 [11])?
Result: binds

Does CGCCGCGGUCUCAGGCGCUGAGUCUGAGUUUACCUGCG (ssRNA, 2'-F pyrimidines; selected purines 50% 2'-OMe) [M3010] bind (Complement C5 [12])?
Result: binds

Does CGCCGCGGUCUCGGGCGCUGAGUCUGAGUUUACCUGCG (ssRNA, 2'-F pyrimidines; selected purines 50% 2'-OMe) [M3020] bind (Complement C5 [12])?
Result: binds

Does CGCCGCGGUCUCAGGCGCUGAGUCUGAGUUUACCUGCG (ssRNA, 2'-F pyrimidines; selected purines 50% 2'-OMe) [M3030] bind (Complement C5 [12])?
Result: binds
